According to patent EP4667494A2 (Fundación Instituto de Investigación Sanitaria Fundación …, dated 2025):

T1: CD79b (UniProt P40259 29-229, limits assumed)
T1 construct: whole, on cells; Endogenous CD79b on human lymphoma cell lines
T1 sequence (looked up): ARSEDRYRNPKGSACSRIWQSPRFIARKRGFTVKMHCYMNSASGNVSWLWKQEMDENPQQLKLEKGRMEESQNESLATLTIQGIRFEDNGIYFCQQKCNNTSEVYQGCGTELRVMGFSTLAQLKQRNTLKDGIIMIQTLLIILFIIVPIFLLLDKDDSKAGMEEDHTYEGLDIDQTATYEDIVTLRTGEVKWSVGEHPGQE

B1: CARLY1 monoclonal murine antibody against CD79b (antibody, V domains shown)
VH: QVQLQQPGAELVRPGASVKLSCKASGYTFTSYWMNWVKQRPGQGLEWIGMIDPSDSETHYNQMFRDKATLTVDKPSNTAYMQLSRLTSEDSAVYYCARALGYWGQGTSVTVSS
VL: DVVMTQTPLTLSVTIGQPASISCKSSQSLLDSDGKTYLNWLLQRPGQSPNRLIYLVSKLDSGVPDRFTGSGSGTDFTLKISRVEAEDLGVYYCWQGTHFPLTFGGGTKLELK
notes: Murine monoclonal from a hybridoma, made by an external service; The variable domains are tied to the name CARLY 1 in the definition section
B2: CARLY2 monoclonal murine antibody against CD79b (antibody, V domains shown)
VH: QVQLQQPGAELVRPGASVKLSCKASGYTFTTYWMNWVKQRPGQGLEWIGMIDPSDSETHYNQMFKDKATLTVDKSSTTAYMQLSSLTSEDSAVYYCARTLSYWGQGTLVTVSA
VL: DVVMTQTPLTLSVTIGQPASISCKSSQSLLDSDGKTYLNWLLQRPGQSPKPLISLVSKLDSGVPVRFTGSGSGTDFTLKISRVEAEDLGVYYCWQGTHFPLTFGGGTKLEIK
notes: Murine monoclonal from a hybridoma; it was detected with anti-mouse IgG-Alexa647 in confocal microscopy
B3: CARLY3 monoclonal murine antibody against CD79b (antibody, V domains shown)
VH: QVQLQQPGAELVRPGASLKLSCKTSGYTFTDYWMNWVKQRPGQGLEWIGMIDPSDSETHYNQMFKDKATLTVDKSSSTAYMQLSSLTSEDSAVYYCTRNLNYWGQGTTLTVSS
VL: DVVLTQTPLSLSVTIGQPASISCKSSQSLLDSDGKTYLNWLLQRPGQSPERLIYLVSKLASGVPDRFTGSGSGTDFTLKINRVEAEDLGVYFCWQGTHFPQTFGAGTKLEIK
notes: as for B2

biological target: T1, CD79b; experiment: flow cytometry on NHL cell lines Ramos and Daudi

Row | Binder | binding result
1 | B1 | binds
2 | B2 | binds
3 | B3 | binds
